Results reported in patent US20210187071A1, “COMPOSITIONS COMPRISING MDA-7/IL-24 PROTEIN AND METHODS OF USE” (VIRGINIA COMMONWEALTH UNIVERSITY, priority 2017, published 2021).
Entries after “also recorded” stand apart in the source; their conditions may differ.

Key:
p27, GRP78, and Beclin-1 = assay: Western blotting of downstream MDA-7/IL-24 signaling molecules in PC3-ML cells; type: cell-based; conditions: western blot, vs untreated control
Excerpt: (§1) Western Blotting: Standard protocols were followed for Western blotting assays (24, 27). The primary antibodies used were pAkt, Akt, pGSK3β, GSK3β, NFATc1, cyclin D1 (Cell Signaling Technology, Danvers, Mass., USA) and EF1α (Abeam, Cambridge, United Kingdom). Appropriate secondary antibodies were purchased from Sigma-Aldrich, Inc. St. Louis, Mo., USA).
After purification, the quality of the purified protein was confirmed using anti-MDA-7 antibody by western blotting (FIG. 1B). To confirm biological activity, PC3-ML cells were treated with MDA-7/IL-24 protein, and anti-proliferative and potential molecular changes were evaluated by MTT assays and western blotting analyses, respectively (FIGS. 1C and 1D). […] Next, to evaluate the long-term effect of MDA-7/IL-24 on cell proliferation, colony formation (clonal) assays were performed in an assortment of PC cell lines.

[1] = system: immortalized normal primary human prostate epithelial cells (RWPE-1); assay: Colony formation (clonal) assay in RWPE-1 cells; type: cell-based; conditions: 200 cells plated, colonies counted 2 weeks after treatment
Description: (§2) MTT Cell Proliferation and Clonal Assays: Cell proliferation assays were done as described previously (25). Briefly, 2,000 cells were seeded in each well of a 96-well plate and allowed to attach overnight. Cells were treated with complete media in the presence or absence of different concentrations of MDA-7/IL-24 protein. At appropriate time points, cells were further incubated with MTT (3-(4, 5-di methyl thiazol-2-yl)-2, 5 diphenyl tetrazolium bromide) reagents. Finally, DMSO was applied to dissolve the blue salt and the OD was measured at 560 nm (25). For determining long-term effects, colony formation (cloning) assays were performed as described earlier (26). Briefly, 200 cells were plated and allowed to grow in the presence or absence of MDA-7/IL-24 for an additional 15 days. Culture media was replaced with fresh media containing MDA-7/IL-24 protein once a week, two times in total.

RAW 264.7 = assay: MTT proliferation assay in RAW 264.7 cells; type: cell-based, mouse; conditions: His-MDA-7 10 μg/ml, 5 days
Description: as §2, with “Briefly, 200 cells were plated and allowed to grow in the presence or absence of MDA-7/IL-24 for an additional 15 days. Culture media was replaced with fresh media containing MDA-7/IL-24 protein once a week, two times in total.” left out
To investigate the effect of MDA-7/IL-24 on osteoclast differentiation, bone marrow cells from athymic nude mice were isolated and induced to differentiate with RANKL in the presence or absence of MDA-7/IL-24 protein. Five days after induction with RANKL, osteoclast differentiation was measured by counting multinucleated cells. Cells positively stained for TRAP and multinucleated cells were quantified under a light microscope (FIG. 9A). […] Using RAW 264.7 cells, different genetic markers associated with osteoclastic differentiation were monitored (33). […] RNA was isolated after 5 days of treatment and real time PCR quantified expression of TRAP, Cathepsin K (CTSK), and Calcitonin Receptor (CTR) genes. […]

[2] = system: Akt signaling (p-Akt, p-GSK3β, NFATc1, Mcl-1); assay: Western blotting of Akt signaling cascade in RAW 264.7 cells; type: cell-based, mouse
Excerpt: as §1
MDA-7/IL-24 Regulates AKT Signaling in Mouse Macrophage cells: To determine whether MDA-7/IL-24 protein exerts any effect on Akt activation in our model system, RAW 264.7 cells were treated with MDA-7/IL-24 protein in the presence or absence of RANKL. It was observed that RANKL induces Akt activation in RAW 264.7 cells, and this activated Akt was suppressed by MDA-7/IL-24 protein (FIGS. 3A and 11A). […] The effect of Akt inhibition by a PI3K kinase inhibitor (LY294002) was also studied in the signaling cascade involving NFAT, Mcl-1, and Akt (FIGS. 3B and 11B).
A constitutively active form of Akt (MYR-Akt) was also tested. Cells were transfected with MYR-Akt and treated with MDA-7/IL-24.

PC3-ML^Akt = assay: Experimental bone metastasis model with PC3-ML cells over expressing constitutively active Akt; type: in vivo, male athymic nude mice; conditions: MDA-7/IL-24 protein 5 mg/kg tail vein, 6 doses over three weeks
Description: To evaluate the role of Akt in vivo, metastatic PC3-ML cells and PC3-ML cells over expressing constitutively active Akt (PC3-MI/**) (FIG. 5A) carrying firefly luciferase were injected into male athymic nude mice through the intracardiac route. Clone 1 was used for the in vivo studies, which was validated for expression of Akt downstream pathway gene expression by western blotting (FIG. 14). Proliferation, invasion, and migration of the tumor cells were monitored by IVIS® imaging. […] The Akt overexpressing PC3-ML cells were more metastatic than the control PC3-ML cells. […] These observations illustrate the significance of Akt in PC-mediated bone metastasis development, which can be partially abrogated by MDA-7/IL-24-treatment (FIG. 5B). […] To investigate osteoclastic differentiation in these animals, bone marrow cells were isolated after completion of the study. Osteoclast differentiation was induced as described above. […] Osteoclast differentiation assays further illustrated the importance of Akt in PC-mediated bone metastasis (FIGS. 5D and 5E). A schematic representation of the proposed role of MDA-7/IL-24 protein in PC-mediated bone metastasis through modulation of the bone microenvironment is presented in FIG. 6. […]

B1: MDA-7/IL-24 protein: Recombinant His-tagged MDA-7/IL-24 protein purified on Ni-NTA from supernatant of IM-PHFA cells infected with Ad.5-His-mda-7 (protein)
chain: QEFHFGPCQVKGVVPQKLWEAFWAVKDTMQAQDNITSARLLQQEVLQNVSDAESCYLVHTLLEFYLKTVFKNYHNRTVEVRTLKSFSTLANNFVLIVSQLQPSQENEMFSIRDSAHRRFLLFRRAFKQLDVEAALTKALGEVDILLTWMQKFYKL
levels of p27, GRP78, and Beclin-1 (p27, GRP78, and Beclin-1): Significant increases; also recorded: up-regulation of expression | proliferation capacity of RWPE-1 (colony formation) [1]: without affecting the proliferation capacity | Proliferation of RAW 264.7 (MTT) (RAW 264.7): not affected | RANKL-induced Akt activation ([2]; MDA-7/IL-24 protein 10 μg/mL, RANKL 100 ng/mL): suppressed | Phosphor-GSK3β, NFATc1, and Mcl-1 expression increased by constitutively active Akt ([2]; RAW 264.7 cells transfected with MYR-Akt): inhibited | Mcl-1 expression ([2]; RAW 264.7 cells, MDA-7/IL-24 treatment): profoundly inhibited Mcl-1 expression | bone metastasis by PC3-ML^Akt cells (PC3-ML^Akt): diminished the inhibitory effects | bone metastasis by PC3-ML^Akt cells (PC3-ML^Akt; listed as MDA-7/IL-24): inhibited metastasis
